Test [1] has as its target T1, receptor binding domain (RBD) of SARS-CoV-2 spike protein (SARS-CoV-2, UniProt P0DTC2 333-523). Briefly: BLI. A general note: Biolayer interferometry detects binding as a change in optical thickness at a sensor tip.
Test [2] addresses T1, receptor binding domain (RBD) of …. Kind of test: ELISA. In general terms: An ELISA detects its analyte on a solid surface through an enzyme-linked reagent.
Test [3] addresses SARS-CoV RBD (306-527) (SARS-CoV, UniProt P59594 306-527). Kind of test: BLI.

B1: NB1B11 (VHH)
VHH: QVQLQESGGGSVQAGGSLRLSCAASGYTVSVGCMAWFRQAPGKEREGVAGIDASGITKYSDSVKGRFTISKDNAKNALDLQMNGLKPEDTAMYHCAAGLVRGSCTDVLDHPSYLGVWGQGTQVTVSS
Turning to B1, the Kd (usually the equilibrium constant for the complex coming apart) in test [1] worked out at 6.76 ± 0.027 nM. Besides, the half-maximal inhibitory concentration (IC50) (as a rule, the midpoint of a concentration-inhibition curve) in test [2] was 709 nM.

B2: NB1C6 (VHH)
VHH: QVQLQESGGGSVQAGGRLRLSCAASGDTYSSYCMGWFRQAPGKEREGVAAIYIGGDNTYYADSAKGRFTISQDYDKNTAYLQMNSLKSEDTAMYYCAAELFCPWPDIGTMSPAEYKYWGQGTQVTVSS
As to B2, in test [1], binding was put at a Kd of 5.07 ± 0.05 nM.

B3: NB1A7 (VHH)
VHH: QVQLQESGGGSVQAGGSLRLSCAASGYTFSSYCLGWFRQAPGKEREGVAAIDSDGSTSYADSVKGRFTISRDNAKNTLYLQMNSLKPEDTAMYYCAAEGGPSLSYCTGGYGFLLSGLMYNSWGQGTQVTVSS
Molecule B3 returned a dissociation constant Kd in test [3] of 471 nM.

B4: format II: bi-paratopic and multivalent nanobody NB1A7-(GGGGS)4-NB1B11-Fc (bispecific antibody)
chain: QVQLQESGGGSVQAGGSLRLSCAASGYTFSSYCLGWFRQAPGKEREGVAAIDSDGSTSYADSVKGRFTISRDNAKNTLYLQMNSLKPEDTAMYYCAAEGGPSLSYCTGGYGFLLSGLMYNSWGQGTQVTVSSGGGGSGGGGSGGGGSGGGGSQVQLQESGGGSVQAGGSLRLSCAASGYTVSVGCMAWFRQAPGKEREGVAGIDASGITKYSDSVKGRFTISKDNAKNALDLQMNGLKPEDTAMYHCAAGLVRGSCTDVLDHPSYLGVWGQGTQVTVSSGGGGS
As to B4, the equilibrium dissociation constant (Kd) in test [1] is less than 0.001 nM. In test [2], this molecule had an IC50 of 37.5 nM.

(Values after PMC8908544 (Structure (London, England : 1993), 2022).)
